Series [1] is described as follows: Drug release of SAPDs in rat plasma. To be noted: without GSH, read-out: remaining drugs. Format: in vitro ADME. The procedure:
The drug release in rat plasma (10%, v/v) were performed using similar protocols as those in PBS. To determine the amount of SAPDs and free CPT in each sample, 50 μL of sample was mixed with 200 μL acetonitrile (containing 0.1% TFA) and sonicated for 1 min. The supernatants were collected using centrifugation. All samples were filtered through a 0.22 μm membrane before analysis by a UPLC system (Waters ACQuity™ Ultra Performance LC) equipped with a reverse-phase column (ACQuity UPLC@BEH, C18, 1.7 μm 2.1×150 mm) and a fluorescence detector (ACQuity FLR, Ex/Em=362/430 nm). The column was flushed with a mixture of water (0.1% TFA) and acetonitrile (0.1% TFA) at 0.3 mL/min with the following gradient: 5% acetonitrile (0-1 min), 5-95% acetonitrile (1-5 min), 95% acetonitrile (5-8 min), 95-5% acetonitrile (8-9 min), and 5% acetonitrile (9-10 min). Peaks of SAPDs and free CPT were monitored and recorded, and the concentrations were calculated by comparing with standard curves.

The nature of series [2]: CD measurement of SAPD stability in plasma/serum environments. Type of series: physicochemical, rat. To be noted: for change of CD absorptions versus aqueous solution: 200 μM in rat plasma, FBS, mice plasma, aged overnight. As for the experimental part:
CD measurement of SAPDs in physiological environments. Stock solutions of SAPDs were prepared at 2 mM and aged overnight. The solutions were diluted to 200 μM in 10% fetal bovine serum (FBS), 10% mice plasma and 10% rat plasma, aged overnight before CD measurement. To study the kinetic stability of the assembled SAPDs upon dilution, the stock solutions of SAPD 1 and 2 were diluted to 100 μM, 50 μM, 25 μM, 10 μM, and 5 μM in 10% rat plasma. The CD spectra were recorded at 5 min, 1 h, 4 h, and 12 h. All the CD spectra were recorded from 300 to 450 nm using a 1 mm path length quartz cell. The spectra were collected and normalized from ellipticity (mdeg) to molar ellipticity (deg·cm2·dmol^−1).
Stability of SAPDs in Protein Environments. The interactions of nanoparticles with serum proteins are known to impact the disassociation of supramolecular assemblies in biologically relevant environment. To assess the stability of assembled SAPDs in more complex biological media, we performed CD experiments to investigate their long-term stability in various serum environments. SAPDs solutions (2 mM) were diluted using rat plasma (FIG. 21C), fetal bovine serum (FBS), and mice plasma to yield a final concentration of 200 μM, which were then aged overnight before CD measurement was taken. […] We also performed experiments to assess their kinetic stability upon plasma dilution, mimicking the dissociation process of SPs after intravenous injection. Solutions of SAPD 1 and 2 (2 mM) were diluted to 100 μM, 50 μM, 25 μM, 10 μM, and 5 μM in rat plasma, and time-dependent CD spectra were recorded at 5 min, 1 h, 4 h, and 12 h. […] At 12 h, the decrease reached 22% and 33%, respectively.

The test system of a further series is HT-29 cells. The series can be described thus: Antitumor efficacy of SAPDs at near MTD on a HT-29 tumor model. To be noted: for mean tumor volume: day 28, SAPD 1 12 mg/kg, SAPD 2-4 36 mg/kg i.v. days 1, 5, 9, irinotecan 100 mg/kg i.p. days 1, 8, 15. The procedure: Antitumor efficacy study of SAPDs at near MTD on a HT-29 tumor model. HT-29 tumor model was established as described above. When the averaged tumor size reached 70-110 mm^3, mice were randomly divided into six groups (n=5 for each group). Four different SAPDs were all i.v. dosed at near or slightly lower than their estimated MTDs. […] The irinotecan (i.p. injection, 100 mg/kg at days 1, 8 and 15) and the PBS groups were used as controls. All other protocols were similar to those in the above-mentioned efficacy study.

Series [3] can be described thus: Drug release and chemical stability of SAPDs in PBS with or without GSH. To be noted: for prodrug degraded / conjugates remaining intact: 200 μM; for prodrug degraded: 37° C., 10 mM GSH, within 5 min; for conjugates remaining intact / remaining drugs: without GSH; for conjugates remaining intact: 120 h; for remaining drugs: 96 h. Format: physicochemical. The procedure:
Drug release and chemical stability studies of SAPDs. Drug release studies of four SAPDs were performed at a concentration of 200 μM in PBS buffer with or without the reducing agent glutathione (GSH). Briefly, 400 μM stock solutions of SAPDs in water were prepared and aged overnight. Stock solutions containing 2×PBS (20 mM) with or without 20 mM GSH were prepared 1 h before the experiment, and the pH was tuned to 7.4 with NaOH. The prodrug solutions were further diluted to 200 μM with 20 mM (2×) PBS buffer with or without GSH (20 mM) to give final solutions of 200 μM prodrug, 10 mM PBS and with or without 10 mM GSH. Three replicates of each SAPD were prepared with or without GSH and were incubated at 37° C. Samples with GSH were collected at 0 min, 5 min, 10 min, 15 min, 30 min, 1 h and 2 h, while samples without GSH were collected at 0 h, 6 h, 12 h, 24 h, 48 h, 72 h, 96 h and 120 h. To prevent further reaction after sample collection, the collected samples (50 μL each point) were acidified by adding 0.2 μL of 2M HCl, frozen with liquid nitrogen and stored at −30° C. The release profile was determined by analytical RP-HPLC using the following conditions: Varian Pursuit XRs C18 (5 μm, 150×4.6 mm); 362 nm detection wavelength; 1 mL/min flow rate; the gradient began at 15% to 85% acetonitrile containing 0.1% TFA by 15 min and back to initial gradient at 18 min. The calculated data points were plotted as a percentage of the total CPT concentration against time. Representative HPLC traces over time were also integrated for comparison.

The nature of series [4]: Zeta potential measurement. Type of series: physicochemical. As for the experimental part:
TT solutions of 200 μM in 1×-DPBS buffer (pH=7.4) were prepared by directly mixing identical volumes of a 400 μM aqueous TT solution and 2×-DPBS buffer (pH=7.4). In some embodiments, solutions at a concentration of 2 mM in PBS buffer (pH=7.4) were prepared and aged overnight prior to zeta potential measurement. TT solutions of 200 μM in 1×-DPBS buffer (pH=5.0) were prepared by mixing identical volumes of a 400 μM aqueous TT solution and 2×-DPBS buffer (pH=5.0), which was pretreated with 6 M HCl. The zeta potential measurements were performed on a Zetasizer Nano ZS90 (Malvern Instruments Ltd., UK). The prepared solutions were loaded in capillary cells and equilibrated for 2 min prior to measurement. The average values and their standard deviations are calculated from three replicate measurements. The zeta potential of the assembled structures was obtained by measuring the electrophoretic movement of the nanostructures under the applied electric field, where the movement velocity is determined by phase analysis light scattering. Variations of the zeta potential value over time were determined by measuring the solutions at different aging time points (1, 2, 4 and 7 days) and are plotted in FIG. 10.

Structures are written as SMILES. Like-named read-outs stand apart in the source and are kept apart here.

What is called amount remaining is what is left of the initial amount, in per cent.

For the compound `CC[C@]1(OC(=O)OCCSSC[C@@H](NC(C)=O)C(=O)N[C@@H](CCCCNC(=O)[C@@H](CSSCCOC(=O)O[C@]2(CC)C(=O)OCc3c2cc2n(c3=O)Cc3cc4ccccc4nc3-2)NC(C)=O)C(=O)N[C@@H](CCCCNC(=O)CCOCCOCCOCCOCCOC)C(=O)N[C@@H](CCCCNC(=O)CCOCCOCCOCCOCCOC)C(=O)N[C@@H](CCCCNC(=O)CCOCCOCCOCCOCCOC)C(=O)N[C@@H](CCCCNC(=O)CCOCCOCCOCCOCCOC)C(N)=O)C(=O)OCc2c1cc1n(c2=O)Cc2cc3ccccc3nc2-1` [SAPD 2], the fraction remaining at 96 h in series [1] (rat plasma (10%, v/v)) was 78%. Moreover, the “change of CD absorptions versus aqueous solution” value (“change” for short) in series [2] was “no noticeable changes”. Besides, in the series on HT-29 cells (36 mg/kg i.v. days 1, 5, 9, n=5), the treatment related death result is given as “one treatement related death”. The compound further showed a mean tumor volume in the series on HT-29 cells of 330 mm^3. Further, in series [3], the prodrug degraded was found to be 45%, the conjugates remaining intact was found to be 87% and the remaining drugs stood at 86%. The compound further showed a ζ-Potential in series [4] (assembled SAPDs in PBS buffer) of −7.4 mV.
Turning to `CC[C@]1(OC(=O)OCCSSC[C@@H](NC(C)=O)C(=O)N[C@@H](CCCCNC(=O)[C@@H](CSSCCOC(=O)O[C@]2(CC)C(=O)OCc3c2cc2n(c3=O)Cc3cc4ccccc4nc3-2)NC(C)=O)C(=O)N[C@@H](CCCCNC(=O)CCOCCOCCOCCOCCOC)C(=O)N[C@@H](CCCCNC(=O)CCOCCOCCOCCOCCOC)C(=O)N[C@@H](CCCCNC(=O)CCOCCOCCOCCOCCOC)C(=O)N[C@@H](CCCCNC(=O)CCOCCOCCOCCOCCOC)C(=O)N[C@@H](CCCCNC(=O)CCOCCOCCOCCOCCOC)C(=O)N[C@@H](CCCCNC(=O)CCOCCOCCOCCOCCOC)C(N)=O)C(=O)OCc2c1cc1n(c2=O)Cc2cc3ccccc3nc2-1` [SAPD 3], the share remaining at 96 h in series [1] (rat plasma (10%, v/v)) amounted to 15%. In addition, the “change” value in series [2] is listed as “some slight changes”. Moreover, the mean tumor volume in the series on HT-29 cells is given as 322 mm^3. In series [3], the prodrug degraded is 93% and the remaining drugs is 63%. This compound showed a ζ-Potential in series [4] (assembled SAPDs in PBS buffer) of −6.5 mV.
With `CC[C@]1(OC(=O)OCCSSC[C@@H](NC(C)=O)C(=O)N[C@@H](CCCCNC(=O)[C@@H](CSSCCOC(=O)O[C@]2(CC)C(=O)OCc3c2cc2n(c3=O)Cc3cc4ccccc4nc3-2)NC(C)=O)C(=O)N[C@@H](CCCCNC(=O)CCOCCOCCOCCOCCOC)C(=O)N[C@@H](CCCCNC(=O)CCOCCOCCOCCOCCOC)C(=O)N[C@@H](CCCCNC(=O)CCOCCOCCOCCOCCOC)C(=O)N[C@@H](CCCCNC(=O)CCOCCOCCOCCOCCOC)C(=O)N[C@@H](CCCCNC(=O)CCOCCOCCOCCOCCOC)C(=O)N[C@@H](CCCCNC(=O)CCOCCOCCOCCOCCOC)C(=O)N[C@@H](CCCCNC(=O)CCOCCOCCOCCOCCOC)C(=O)N[C@@H](CCCCNC(=O)CCOCCOCCOCCOCCOC)C(N)=O)C(=O)OCc2c1cc1n(c2=O)Cc2cc3ccccc3nc2-1` [SAPD 4], in series [1] (rat plasma (10%, v/v)), the fraction remaining at 96 h came out at 18%. Besides, the “change” value in series [2] is given as “some slight changes”. The same compound registered a mean tumor volume in the series with HT-29 cells of 408 mm^3. In series [3], the prodrug degraded was found to be 92% and the remaining drugs stood at 61%. Besides, the ζ-Potential in series [4] (assembled SAPDs in PBS buffer) was −5.9 mV.
With `CC[C@]1(OC(=O)OCCSSC[C@@H](NC(C)=O)C(=O)N[C@@H](CCCCNC(=O)[C@@H](CSSCCOC(=O)O[C@]2(CC)C(=O)OCc3c2cc2n(c3=O)Cc3cc4ccccc4nc3-2)NC(C)=O)C(=O)N[C@@H](CCCCNC(=O)CCOCCOCCOCCOCCOC)C(=O)N[C@@H](CCCCNC(=O)CCOCCOCCOCCOCCOC)C(N)=O)C(=O)OCc2c1cc1n(c2=O)Cc2cc3ccccc3nc2-1` [TT 1], the amount remaining at 96 h in series [1] came to 89%. Also, the “drop of CD absorption at 389 nm” value in series [2] (5 μM in rat plasma, 5 min) stood at 15%; in series [2] (5 μM in rat plasma, 12 h), 33%; in series [2] (10 μM in rat plasma, 5 min) it was 10%; in series [2] (10 μM in rat plasma, 12 h), 22%. The “change” value in series [2] is listed as “no noticeable changes”. Moreover, the “stability upon dilution over time” value in series [2] (rat plasma, concentrations above 25 μM) is reported as “highly stable”. Further, the mean tumor volume with HT-29 cells is listed as 172 mm^3. Moreover, the prodrug degraded in series [3] is on record as 8%. The conjugates remaining intact in series [3] was found to be 96%. In addition, in series [3], the remaining drugs worked out at 95%. The ζ-Potential in series [4] (1×-DPBS buffer, pH 5.0, 200 μM) is on record as −5 mV; in series [4] (1×-DPBS buffer, pH 7.4, 200 μM), −5 mV; in series [4] (assembled SAPDs in PBS buffer), −6.5 mV.

The values above are taken from US20220211858A1, “TUBULAR SUPRAMOLECULAR POLYMERS” (priority 2019, published 2022).
